According to article PMC5914118, “Exploiting the Concept of Multivalency with ^68Ga- and ^89Zr-Labelled Fusarinine C-Minigastrin Bioconjugates for Targeting CCK2R Expression” (Contrast Media & Molecular Imaging, 2018):
Marks after values point to notes of the source that are not given here.

Tests used:
[1] = assay type: physicochemical
Description: Aliquots (50 μL) of ^68Ga- and ^89Zr-labelled mono-, di-, and trimer (10 μM) were diluted in 450 μL PBS. After adding 500 μL octanol the mixture was vortexed with 1400 rpm (MS 3 basic vortexer, IKA, Staufen, Germany) for 15 min at RT followed by centrifugation for 2 min at 4500 rpm. Subsequently, 100 μL aliquots of the organic and the aqueous layer were collected and logD values were calculated using Excel (n = 3, six replicates) after gamma counter measurement.

[2] = test system: A431-CCK2R/A431-mock tumour xenografted BALB/c nude mice; settings: mouse, in vivo; for Biodistribution: A431-CCK2R tumour (receptor positive) / Biodistribution: A431-mock tumour (receptor negative) / Biodistribution: Blood / Biodistribution: Bone / Biodistribution: Heart / Biodistribution: Intestine / Biodistribution: Kidneys / Biodistribution: Liver / Biodistribution: Lung / Biodistribution: Muscle / Biodistribution: Pancreas / Biodistribution: Spleen / Biodistribution: Stomach: 1 h
Description: All animal experiments were conducted in compliance with the Austrian and Dutch animal protection laws and with approval of the Austrian Ministry of Science (BMWF-66.011/000604-II/3b/2012 and BMWFW-66.011/0049-WF/II/3b/2014). In vivo stability studies were conducted in 5-week-old female BALB/c mice (in-house breed, ZVTA Innsbruck, Dr. Hermann Dietrich). The biodistribution studies were performed using female 8−10-week-old athymic BALB/c nude mice (Charles River Laboratories, Sulzfeld, Germany). Tumour xenografts were induced by subcutaneous injection of 2 × 10^6 A431-CCK2R cells (receptor positive) in the right and the same amount of A431-mock (receptor negative) in the left flank. Tumours were allowed to grow until they had reached a volume of 0.3–0.6 cm^3. To evaluate the biodistribution profile nude mice (n = 4) were intravenously injected with either 1-2 MBq ^68Ga- or 0.3 MBq ^89Zr-labelled mono-, di-, and trimer (0.1–0.2 nmol). The animals were sacrificed by cervical dislocation after 1 h as well as 2 h and 4 h in case of ^68Ga- and ^89Zr-labelled trimer, followed by the collection of organs and tissue. The collected samples were measured in the gamma counter and the results were calculated as percentage of injected dose per gram tissue (% ID/g).

For CSCC[C@H](NC(=O)[C@H](Cc1c[nH]c2ccccc12)NC(=O)CNC(=O)[C@H](Cc1ccc(O)cc1)NC(=O)[C@H](C)NC(=O)[C@@H](CCC(=O)O)NC(=O)CCSC1CC(=O)N(CCC(=O)NC2CCCN(O)C(=O)C=C(C)CCOC(=O)C(NC(C)=O)CCCN(O)C(=O)C=C(C)CCOC(=O)C(NC(C)=O)CCCN(O)C(=O)C=C(C)CCOC2=O)C1=O)C(=O)N[C@@H](CC(=O)O)C(=O)N[C@@H](Cc1ccccc1)C(N)=O (stereo partly shown) [^68Ga-labelled Monomer, metal not drawn], the “Distribution coefficient logD (pH 7.4)” value [1] was −2.99 ± 0.02, the “Tumour-to-organ ratio (T/O): A431-mock” value [2] was 16.3 ± 3.3^bd and the “Tumour-to-organ ratio (T/O): Blood” value [2] was 14.4 ± 3.6^b. The “Tumour-to-organ ratio (T/O): Bone” value [2] was 17.1 ± 7.4^bd, the “Tumour-to-organ ratio (T/O): Heart” value [2] was 29.5 ± 9.3^bd and the “Tumour-to-organ ratio (T/O): Intestine” value [2] was 9.4 ± 3.7^b. The “Tumour-to-organ ratio (T/O): Kidneys” value [2] was 0.86 ± 0.13^abd, the “Tumour-to-organ ratio (T/O): Liver” value [2] was 21.1 ± 3.1^abd and the “Tumour-to-organ ratio (T/O): Lung” value [2] was 11.7 ± 2.1^bd. For the same compound, the “Tumour-to-organ ratio (T/O): Muscle” value [2] was 20.4 ± 1.8^b, the “Tumour-to-organ ratio (T/O): Pancreas” value [2] was 16.7 ± 3.0^bd and the “Tumour-to-organ ratio (T/O): Spleen” value [2] was 27.3 ± 6.3^b. The “Tumour-to-organ ratio (T/O): Stomach” value [2] was 4.6 ± 1.1^b, the “Biodistribution: A431-CCK2R tumour (receptor positive)” value [2] was 4.86 ± 1.00^d % ID/g and the “Biodistribution: A431-mock tumour (receptor negative)” value [2] was 0.30 ± 0.04^b % ID/g. The “Biodistribution: Blood” value [2] was 0.35 ± 0.06^ab % ID/g, the “Biodistribution: Bone” value [2] was 0.31 ± 0.08^b % ID/g and the “Biodistribution: Heart” value [2] was 0.17 ± 0.02^ab % ID/g. The “Biodistribution: Intestine” value [2] was 0.58 ± 0.17^b % ID/g, the “Biodistribution: Kidneys” value [2] was 5.57 ± 0.57^abd % ID/g and the “Biodistribution: Liver” value [2] was 0.23 ± 0.02^ab % ID/g. The “Biodistribution: Lung” value [2] was 0.42 ± 0.06^ab % ID/g, the “Biodistribution: Muscle” value [2] was 0.20 ± 0.05^b % ID/g and the “Biodistribution: Pancreas” value [2] was 0.29 ± 0.02^ab % ID/g. The “Biodistribution: Spleen” value [2] was 0.18 ± 0.04^ab % ID/g and the “Biodistribution: Stomach” value [2] was 1.07 ± 0.14^ab % ID/g.
With CSCC[C@H](NC(=O)[C@H](Cc1c[nH]c2ccccc12)NC(=O)CNC(=O)[C@H](Cc1ccc(O)cc1)NC(=O)[C@H](C)NC(=O)[C@@H](CCC(=O)O)NC(=O)CCSC1CC(=O)N(CCC(=O)NC2CCCN(O)C(=O)C=C(C)CCOC(=O)C(NC(C)=O)CCCN(O)C(=O)C=C(C)CCOC(=O)C(NC(C)=O)CCCN(O)C(=O)C=C(C)CCOC2=O)C1=O)C(=O)N[C@@H](CC(=O)O)C(=O)N[C@@H](Cc1ccccc1)C(N)=O (stereo partly shown) [^89Zr-labelled Monomer, metal not drawn] the “Distribution coefficient logD (pH 7.4)” value [1] was −3.17 ± 0.06, the “Tumour-to-organ ratio (T/O): A431-mock” value [2] was 7.5 ± 1.8 and the “Tumour-to-organ ratio (T/O): Blood” value [2] was 9.0 ± 4.7^b. The “Tumour-to-organ ratio (T/O): Bone” value [2] was 4.7 ± 1.3^b, the “Tumour-to-organ ratio (T/O): Heart” value [2] was 14.8 ± 4.7^b and the “Tumour-to-organ ratio (T/O): Intestine” value [2] was 7.9 ± 2.3. The “Tumour-to-organ ratio (T/O): Kidneys” value [2] was 0.17 ± 0.03^b, the “Tumour-to-organ ratio (T/O): Liver” value [2] was 12.4 ± 2.8^b and the “Tumour-to-organ ratio (T/O): Lung” value [2] was 6.5 ± 1.6^b. For the same compound, the “Tumour-to-organ ratio (T/O): Muscle” value [2] was 15.9 ± 4.2^b, the “Tumour-to-organ ratio (T/O): Pancreas” value [2] was 13.3 ± 2.9^b and the “Tumour-to-organ ratio (T/O): Spleen” value [2] was 18.7 ± 6.1^b. The “Tumour-to-organ ratio (T/O): Stomach” value [2] was 4.9 ± 1.3^b, the “Biodistribution: A431-CCK2R tumour (receptor positive)” value [2] was 1.91 ± 0.40 % ID/g and the “Biodistribution: A431-mock tumour (receptor negative)” value [2] was 0.26 ± 0.05^ab % ID/g. The “Biodistribution: Blood” value [2] was 0.30 ± 0.19^ab % ID/g, the “Biodistribution: Bone” value [2] was 0.42 ± 0.10^ab % ID/g and the “Biodistribution: Heart” value [2] was 0.14 ± 0.05^ab % ID/g. The “Biodistribution: Intestine” value [2] was 0.27 ± 0.10^abd % ID/g, the “Biodistribution: Kidneys” value [2] was 11.3 ± 2.10^ab % ID/g and the “Biodistribution: Liver” value [2] was 0.16 ± 0.04^abd % ID/g. For the same compound, the “Biodistribution: Lung” value [2] was 0.31 ± 0.09^ab % ID/g, the “Biodistribution: Muscle” value [2] was 0.13 ± 0.04^ab % ID/g and the “Biodistribution: Pancreas” value [2] was 0.15 ± 0.04^abd % ID/g. The “Biodistribution: Spleen” value [2] was 0.12 ± 0.04^ab % ID/g and the “Biodistribution: Stomach” value [2] was 0.42 ± 0.14^abd % ID/g.
